Series [1] addresses RdhK6 (CprK1) (Desulfitobacterium hafniense DCB-2) (UniProt Q18R04). The experiment in a line: EMSA. Conditions: 200 uM Cl-OHPA; EMSA: 100 ng DNA, 2 uM protein, 200 uM effector, 15 uL; buffer 100 mM Tris-HCl pH 8.5, 40% glycerol, 10 mM MgCl2, 500 mM NaCl, 5 mM EDTA, 10 mM DTT …. In general terms: Mobility shift assays separate free from complexed probe on a gel.
Series [2] has as its system RdhK1 (CprK4) (Desulfitobacterium hafniense DCB-2). The experiment in a line: EMSA. Conditions: no effector; EMSA: 100 ng DNA, 2 uM protein, 200 uM effector, 15 uL; buffer 100 mM Tris-HCl pH 8.5, 40% glycerol, 10 mM MgCl2, 500 mM NaCl, 5 mM EDTA, 10 mM DTT ….

Consider “GAATTCTCAGGCGATGTAACCGCTTTCAAAGTTAATACACATTAATACTCTTAACAATGTGATAGCTATGATTGCACCG (double strand) [mgl-DB7]”, for which the binding signal in series [1] was 100 % DNA bound; in series [2], 10 % DNA bound.
Taken in the same sequence, the figures for “GAATTCTCAGGCGATGTAACCGCTTTCAAATTTAGTATACGCTAAATATCTTAACAATGTGATAGCTATGATTGCACCG (double strand) [mgl-DB8]” were 100 % DNA bound and 80 % DNA bound.

The values are drawn from paper PMC7062800.
